The text below walks through data of US20190185530A1 (WESTFAELISCHE WILHELMS UNIVERSITAET MUENSTER, published 2019).

B1: human S100A8 protein of Uniprot accession no. P05109 (recombinant) (other)
chain: LTELEKALNSIIDVYHKYSLIKGNFHAVYRDDLKKLLETECPQYIRKKGADVWFKELDINTDGAVNFQEFLILVIKMGVAAHKKSHEESHKE
notes: Recombinant; also called recS100A8

The target of data set [1] is T1, human S100A9 protein of Uniprot accession no. P06702 (recombinant, wild type) (human, UniProt P06702 2-114).
T1 construct: Recombinant; also called recS100A9; S100A9 wt
T1 sequence: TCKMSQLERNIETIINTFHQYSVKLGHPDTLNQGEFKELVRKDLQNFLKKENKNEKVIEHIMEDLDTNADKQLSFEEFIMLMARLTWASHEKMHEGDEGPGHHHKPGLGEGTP
Description: MALDI-MS, native conditions, without calcium. From the text: (§1) FIG. 5: MALDI mass spectra in the absence and presence of calcium under native solvent conditions. (a) MALDI mass spectra of recS100A8/S100A9 wt complexes in the absence (left) and presence (right) of calcium using 2,6-dihydroxy-acetophenone as matrix. The mass spectra between m/z 20,000 and 100,000 together with an inset between m/z 46,000 and 50,000 are shown. T⁺, singly charged; T²⁺, doubly charged; T³⁺, triply charged tetramer. (b) MALDI mass spectra of recS100A8/S100A9(N69A) mutant complexes in the absence (left) and presence (right) of calcium.
S100A8 and S100A9 exist as heterodimers in the absence of calcium, and these heterodimeric complexes associate to (S100A8/S100A9)₂ tetramers upon calcium-binding. […] In the absence of calcium, samples show intense signals of singly charged heterodimers. […] Other prominent signals are detected at molecular masses of around 24 kDa and 16 kDa, representing doubly charged (T2+) or triply charged (T3+) tetramers in accordance with results reported earlier for the native proteins purified from human granulocytes. The number of Ca2+ bound to the tetramers was calculated from the difference between the observed masses of the tetramers and the sum of the calculated theoretical molecular masses of the monomeric components.

Data set [2] concerns the molecule itself. Nature of the data set: glycerol density gradient centrifugation with calcium, SDS-PAGE of fractions (heterodimer to heterodimer). How it is done: (§2) FIG. 7: Density gradient centrifugation of S100A8/S100A9 proteins. wt and mutant recS100A8/S100A9 complexes were loaded on a glycerol gradient in the presence of either 1 mM EGTA or 100 μM Ca2+. After centrifugation, successive fractions of the gradients were analyzed by SDS-PAGE. […] Addition of calcium induced a marked shift for recS100A8/S100A9 wt to higher glycerol densities, whereas for the mutant complexes recS100A8/S100A9(N69A) and recS100A8/S100A9(E78A) no shift was observed.

Data set [3] concerns the molecule itself. Nature of the data set: MALDI-MS, native conditions, with calcium (heterodimer to heterodimer).
Excerpt: as §1

In data set [4] the target is B1. Description: ESI-MS, native conditions.
In data set [5] the target is B1. Nature of the data set: glycerol density gradient centrifugation with EGTA, SDS-PAGE of fractions. How it is done: as §2
Data set [6] deals with the molecule itself. Nature of the data set: glycerol centrifugation with EGTA, Bradford assay of fractions (homodimer). How it is done: FIG. 8: Glycerol centrifugation of S100A12 proteins. Wild type (wt) and mutant recS100A12 complexes were loaded on a 15% glycerol solution in the presence of either EGTA or Ca²⁺ or Zn²⁺ or Ca²⁺/Zn²⁺. Buffer conditions were 20 mM HEPES, 140 mM NaCl, pH 7.4. After centrifugation, successive fractions of the gradients were analyzed by the colorimetric assay Bradford. […] Addition of calcium or zinc alone induced no shift for wtS100A12 to higher glycerol fractions. Addition of calcium plus zinc induced a marked shift for wtS100A12 to higher glycerol fractions, whereas for the mutant complex recS100A12(E73A) no shift was observed. FIG. 8A: Protein concentrations of collected fractions determined by Bradford assay. Sample A: S100A12 wild type+2 mM EGTA, sample B S100A12 wild type+5 mM CaCl₂, sample C: S100A12 wild type+1 mM Zn, sample D S100A12 wild type+200 μM Zn, sample E: S100A12 wild type+5 mM CaCl₂+200 μM Zn, sample F: S100A12 wild type+2.5 mM CaCl₂+100 μM Zn FIG. 8B: Summary of collected and analysed fractions of wtS100A12 (see FIG. 8A) in the presence or absence of bivalent cations as indicated in the figure. FIG. 8C Summary of collected and analysed fractions of wtS100A12 and recS100A12E73A mutant in the presence (5 mM CaCl₂+200 μM Zn, 2.5 mM CaCl₂+100 μM Zn) or absence (2 mM EGTA) of bivalent cations as indicated in the figure.

As for B1, the binding result in data set [1] was “binds”.

B2: recS100A8/S100A9 wt heterodimer (other)
chain 1: LTELEKALNSIIDVYHKYSLIKGNFHAVYRDDLKKLLETECPQYIRKKGADVWFKELDINTDGAVNFQEFLILVIKMGVAAHKKSHEESHKE
chain 2: TCKMSQLERNIETIINTFHQYSVKLGHPDTLNQGEFKELVRKDLQNFLKKENKNEKVIEHIMEDLDTNADKQLSFEEFIMLMARLTWASHEKMHEGDEGPGHHHKPGLGEGTP
notes: This heterodimer is the unit that joins with a second one to form the (S100A8/S100A9)2 tetramer when calcium is present; also called recS100A8/S100A9 wt complexes; wt S100A8/S100A9
Consider B2, for which, in data set [2], the binding result was “binds”.

B3: recS100A8/S100A9(E78A) mutant heterodimer (other)
chain 1: LTELEKALNSIIDVYHKYSLIKGNFHAVYRDDLKKLLETECPQYIRKKGADVWFKELDINTDGAVNFQEFLILVIKMGVAAHKKSHEESHKE
chain 2: TCKMSQLERNIETIINTFHQYSVKLGHPDTLNQGEFKELVRKDLQNFLKKENKNEKVIEHIMEDLDTNADKQLSFEAFIMLMARLTWASHEKMHEGDEGPGHHHKPGLGEGTP
notes: Heterodimer tested for association with itself into a tetramer
For the molecule B3, the binding result in data set [3] is “no binding”.

B4: recS100A8/S100A9(N69A+E78A) mutant heterodimer (other)
chain 1: LTELEKALNSIIDVYHKYSLIKGNFHAVYRDDLKKLLETECPQYIRKKGADVWFKELDINTDGAVNFQEFLILVIKMGVAAHKKSHEESHKE
chain 2: TCKMSQLERNIETIINTFHQYSVKLGHPDTLNQGEFKELVRKDLQNFLKKENKNEKVIEHIMEDLDTAADKQLSFEAFIMLMARLTWASHEKMHEGDEGPGHHHKPGLGEGTP
notes: as for B3
As to B4, in data set [3], the binding result was “no binding”.

B5: recS100A8/S100A9(N69A) mutant heterodimer (other)
chain 1: LTELEKALNSIIDVYHKYSLIKGNFHAVYRDDLKKLLETECPQYIRKKGADVWFKELDINTDGAVNFQEFLILVIKMGVAAHKKSHEESHKE
chain 2: TCKMSQLERNIETIINTFHQYSVKLGHPDTLNQGEFKELVRKDLQNFLKKENKNEKVIEHIMEDLDTAADKQLSFEEFIMLMARLTWASHEKMHEGDEGPGHHHKPGLGEGTP
notes: Heterodimer tested for association with itself into a tetramer; also called recS100A8/S100A9(N69A) mutant complexes
B5: in data set [3], the binding result was “no binding”.

B6: S100A9 (N69A+E78A), mutant of human S100A9 having a double Asn69→Ala and Glu78→Ala substitution (other)
chain: TCKMSQLERNIETIINTFHQYSVKLGHPDTLNQGEFKELVRKDLQNFLKKENKNEKVIEHIMEDLDTAADKQLSFEAFIMLMARLTWASHEKMHEGDEGPGHHHKPGLGEGTP
Consider B6, for which, in data set [4], the binding result is reported as “binds”.

B7: S100A9 (N69A), mutant of human S100A9 having a single Asn69→Ala substitution (other)
chain: TCKMSQLERNIETIINTFHQYSVKLGHPDTLNQGEFKELVRKDLQNFLKKENKNEKVIEHIMEDLDTAADKQLSFEEFIMLMARLTWASHEKMHEGDEGPGHHHKPGLGEGTP
Regarding B7, the binding result in data set [5] is given as “binds”.

B8: S100A9 (E78A), mutant of human S100A9 having a single Glu78→Ala substitution (other)
chain: TCKMSQLERNIETIINTFHQYSVKLGHPDTLNQGEFKELVRKDLQNFLKKENKNEKVIEHIMEDLDTNADKQLSFEAFIMLMARLTWASHEKMHEGDEGPGHHHKPGLGEGTP
Consider B8, for which the binding result in data set [5] is “binds”.

B9: wild type human S100A12 protein (recombinant), single chain (other)
chain: TKLEEHLEGIVNIFHQYSVRKGHFDTLSKGELKQLLTKELANTIKNIKDKAVIDEIFQGLDANQDEQVDFQEFISLVAIALKAAHYHTHKE
notes: also called recS100A12 wt; wtS100A12
For B9, the binding result in data set [6] is given as “binds”.
